Data set [1] has as its target MBP-PDZ (PDZ domain of PICK1 fused to MBP) (human, UniProt Q9NRD5 22-105). Description: ITC.
The data set “SAXS” concerns the molecule itself. Description: SAXS.

B1: DAT C-terminal tail peptide (6 aa) (peptide)
peptide: RHWLKV
On to B1, for which, in data set [1], the dissociation constant (Kd) – broadly, a measure of binding affinity in units of concentration – is around 1900 nM.

B2: MBP-PICK1 fusion protein (natural protein, human, UniProt Q9NRD5 1-415, looked up)
chain: MFADLDYDIEEDKLGIPTVPGKVTLQKDAQNLIGISIGGGAQYCPCLYIVQVFDNTPAALDGTVAAGDEITGVNGRSIKGKTKVEVAKMIQEVKGEVTIHYNKLQADPKQGMSLDIVLKKVKHRLVENMSSGTADALGLSRAILCNDGLVKRLEELERTAELYKGMTEHTKNLLRAFYELSQTHRAFGDVFSVIGVREPQPAASEAFVKFADAHRSIEKFGIRLLKTIKPMLTDLNTYLNKAIPDTRLTIKKYLDVKFEYLSYCLKVKEMDDEEYSCIALGEPLYRVSTGNYEYRLILRCRQEARARFSQMRKDVLEKMELLDQKHVQDIVFQLQRLVSTMSKYYNDCYAVLRDADVFPIEVDLAHTTLAYGLNQEEFTDGEEEEEEEDTAAGEPSRDTRGAAGPLDKGGSWCDS
Regarding B2, the stoichiometry N (commonly a count of units in the complex or per binding partner) in the data set “SAXS” worked out at 2.

The record behind these values is paper PMC4454178 (Molecular Biology of the Cell, 2015).
